From article PMC3196764 (Progress in retinal and eye research, 2011)
Each block holds one molecule with its values, some of them ahead of it.

Experiments:
calmodulin (Bos taurus) = calmodulin (Bos taurus) (UniProt P62157); conditions: cited from earlier work
[1] = target: light-activated unphosphorylated rhodopsin (UniProt P02699 1-348, light-activated)
Chain of light-activated unphosphorylated rhodopsin (P02699 whole entry): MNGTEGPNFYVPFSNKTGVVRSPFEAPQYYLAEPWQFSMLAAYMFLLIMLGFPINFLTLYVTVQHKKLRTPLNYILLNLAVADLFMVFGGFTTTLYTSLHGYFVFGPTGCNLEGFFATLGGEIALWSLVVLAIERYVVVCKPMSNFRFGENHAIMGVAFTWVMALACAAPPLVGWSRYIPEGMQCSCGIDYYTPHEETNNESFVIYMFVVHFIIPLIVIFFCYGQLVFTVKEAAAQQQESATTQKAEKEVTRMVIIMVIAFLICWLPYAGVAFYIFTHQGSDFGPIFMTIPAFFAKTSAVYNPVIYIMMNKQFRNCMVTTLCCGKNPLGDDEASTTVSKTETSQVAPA

Molecule: arrestin-1 (from UniProt P08168)
- Kd (calmodulin (Bos taurus)): 7 µM

- percent of the maximum binding achieved at 37°C [1]: 26%
B1: arrestin-1 3A+R175E combination mutant (natural protein, UniProt P08168 1-404, looked up)
chain: MKANKPAPNHVIFKKISRDKSVTIYLGKRDYIDHVERVEPVDGVVLVDPELVKGKRVYVSLTCAFRYGQEDIDVMGLSFRRDLYFSQVQVFPPVGASGATTRLQESLIKKLGANTYPFLLTFPDYLPCSVMLQPAPQDVGKSCGVDFEIKAFATHSTDVEEDKIPKKSSVRLLIEKVQHAPRDMGPQPRAEASWQFFMSDKPLRLAVSLSKEIYYHGEPIPVTVAVTNSTEKTVKKIKVLVEQVTNVVLYSSDYYIKTVAAEEAQEKVPPNSSLTKTLTLVPLLANNRERRGIALDGKIKHEDTNLASSTIIKEGIDKTVMGILVSYQIKVKLTVSGLLGELTSSEVATEVPFRLMHPQPEDPDTAKESFQDENAAAEEFARQNLKDAGEYKEEKTDQEAAMDE
